Numbering of substitutions follows the chain as printed. Ends that are not written are not given here.
T1: Ana2 S38A full length, nonphosphorylated (purified) (Drosophila, UniProt Q9XZ31 1-420, S38A)
T1 sequence (looked up): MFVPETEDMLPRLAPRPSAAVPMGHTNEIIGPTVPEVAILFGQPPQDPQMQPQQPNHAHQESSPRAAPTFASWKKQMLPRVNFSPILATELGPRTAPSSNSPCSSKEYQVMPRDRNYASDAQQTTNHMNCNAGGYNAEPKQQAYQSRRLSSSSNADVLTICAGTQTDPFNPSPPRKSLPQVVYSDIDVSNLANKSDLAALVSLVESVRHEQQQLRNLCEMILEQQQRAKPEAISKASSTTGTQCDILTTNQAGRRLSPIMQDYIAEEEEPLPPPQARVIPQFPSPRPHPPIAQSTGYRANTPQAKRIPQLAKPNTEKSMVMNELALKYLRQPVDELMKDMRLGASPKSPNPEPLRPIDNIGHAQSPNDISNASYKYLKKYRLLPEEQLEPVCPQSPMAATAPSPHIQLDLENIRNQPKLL

T2: Ana2 full length, wild type, nonphosphorylated (purified) (Drosophila, UniProt Q9XZ31 1-420)
T2 sequence (looked up): T1 sequence (looked up) with A38S

B1: His6-Thrombin-Sas4-606 (Sas4 amino acids 606–901) (domain or fragment, Drosophila, UniProt Q9VI72 606-901, looked up)
chain: RNIARLAPKVLPSATMSDILDENGRRTQSLDGTAGKPAKQREAQNRRQSSGSAQVRSRSRSLSRNKKTPYALDESYASSSSVESEEVQPPVTAPKAATPPPAANSSSDFKREITNADGSKDIWYPNGNLKKISADGMNLRMLYFNKDIKETNIREGTVKYYYAETNTWHTSYLDGLEILEFPNGQTEHRRKDGTVEIHFPNNSIKIVDPSDTEKLEEWRYADGTHLVQLRNGDKILNLPNGQKEIHTKLNKRREYPDGTVKLVYPDGSQETRYSNGRVRLKDKDGKLIMDTDYAKY
B2: Ana2 1–60 (amino acids 1–60), nonphosphorylated (domain or fragment, Drosophila, UniProt Q9XZ31 1-60, looked up)
chain: MFVPETEDMLPRLAPRPSAAVPMGHTNEIIGPTVPEVSILFGQPPQDPQMQPQQPNHAHQ
B3: Ana2 1–60 prephosphorylated with purified Plk4 (domain or fragment, Drosophila, UniProt Q9XZ31 1-60, looked up)
chain: B2 chain
modifications: also: prephosphorylated by Plk4, sites not listed

Legend:
Assay in all cases: BLI
[1] = target: T1, Ana2 S38A full length, …
[2] = target: T2, Ana2 full length, wild type, …
[3] = target: B1

Row | Kd [1] [nM] | Kd [2] [nM] | Kd [3] [nM] | Binder
1 | 31 | 26 |  | B1
2 |  |  | 134 | B2
3 |  |  | 72 | B3

Reference: paper PMC7041687 (The Journal of Cell Biology, 2019)
